The source of these data is IntAct's records for PubMed 29688405.

The target of assay [1] is frem2_human FREM2 (UniProt Q5SZK8).
Assay [2] addresses frem1_human FREM1 (UniProt Q5H8C1).
Chain of UniProt Q5H8C1 (Q5H8C1 whole entry): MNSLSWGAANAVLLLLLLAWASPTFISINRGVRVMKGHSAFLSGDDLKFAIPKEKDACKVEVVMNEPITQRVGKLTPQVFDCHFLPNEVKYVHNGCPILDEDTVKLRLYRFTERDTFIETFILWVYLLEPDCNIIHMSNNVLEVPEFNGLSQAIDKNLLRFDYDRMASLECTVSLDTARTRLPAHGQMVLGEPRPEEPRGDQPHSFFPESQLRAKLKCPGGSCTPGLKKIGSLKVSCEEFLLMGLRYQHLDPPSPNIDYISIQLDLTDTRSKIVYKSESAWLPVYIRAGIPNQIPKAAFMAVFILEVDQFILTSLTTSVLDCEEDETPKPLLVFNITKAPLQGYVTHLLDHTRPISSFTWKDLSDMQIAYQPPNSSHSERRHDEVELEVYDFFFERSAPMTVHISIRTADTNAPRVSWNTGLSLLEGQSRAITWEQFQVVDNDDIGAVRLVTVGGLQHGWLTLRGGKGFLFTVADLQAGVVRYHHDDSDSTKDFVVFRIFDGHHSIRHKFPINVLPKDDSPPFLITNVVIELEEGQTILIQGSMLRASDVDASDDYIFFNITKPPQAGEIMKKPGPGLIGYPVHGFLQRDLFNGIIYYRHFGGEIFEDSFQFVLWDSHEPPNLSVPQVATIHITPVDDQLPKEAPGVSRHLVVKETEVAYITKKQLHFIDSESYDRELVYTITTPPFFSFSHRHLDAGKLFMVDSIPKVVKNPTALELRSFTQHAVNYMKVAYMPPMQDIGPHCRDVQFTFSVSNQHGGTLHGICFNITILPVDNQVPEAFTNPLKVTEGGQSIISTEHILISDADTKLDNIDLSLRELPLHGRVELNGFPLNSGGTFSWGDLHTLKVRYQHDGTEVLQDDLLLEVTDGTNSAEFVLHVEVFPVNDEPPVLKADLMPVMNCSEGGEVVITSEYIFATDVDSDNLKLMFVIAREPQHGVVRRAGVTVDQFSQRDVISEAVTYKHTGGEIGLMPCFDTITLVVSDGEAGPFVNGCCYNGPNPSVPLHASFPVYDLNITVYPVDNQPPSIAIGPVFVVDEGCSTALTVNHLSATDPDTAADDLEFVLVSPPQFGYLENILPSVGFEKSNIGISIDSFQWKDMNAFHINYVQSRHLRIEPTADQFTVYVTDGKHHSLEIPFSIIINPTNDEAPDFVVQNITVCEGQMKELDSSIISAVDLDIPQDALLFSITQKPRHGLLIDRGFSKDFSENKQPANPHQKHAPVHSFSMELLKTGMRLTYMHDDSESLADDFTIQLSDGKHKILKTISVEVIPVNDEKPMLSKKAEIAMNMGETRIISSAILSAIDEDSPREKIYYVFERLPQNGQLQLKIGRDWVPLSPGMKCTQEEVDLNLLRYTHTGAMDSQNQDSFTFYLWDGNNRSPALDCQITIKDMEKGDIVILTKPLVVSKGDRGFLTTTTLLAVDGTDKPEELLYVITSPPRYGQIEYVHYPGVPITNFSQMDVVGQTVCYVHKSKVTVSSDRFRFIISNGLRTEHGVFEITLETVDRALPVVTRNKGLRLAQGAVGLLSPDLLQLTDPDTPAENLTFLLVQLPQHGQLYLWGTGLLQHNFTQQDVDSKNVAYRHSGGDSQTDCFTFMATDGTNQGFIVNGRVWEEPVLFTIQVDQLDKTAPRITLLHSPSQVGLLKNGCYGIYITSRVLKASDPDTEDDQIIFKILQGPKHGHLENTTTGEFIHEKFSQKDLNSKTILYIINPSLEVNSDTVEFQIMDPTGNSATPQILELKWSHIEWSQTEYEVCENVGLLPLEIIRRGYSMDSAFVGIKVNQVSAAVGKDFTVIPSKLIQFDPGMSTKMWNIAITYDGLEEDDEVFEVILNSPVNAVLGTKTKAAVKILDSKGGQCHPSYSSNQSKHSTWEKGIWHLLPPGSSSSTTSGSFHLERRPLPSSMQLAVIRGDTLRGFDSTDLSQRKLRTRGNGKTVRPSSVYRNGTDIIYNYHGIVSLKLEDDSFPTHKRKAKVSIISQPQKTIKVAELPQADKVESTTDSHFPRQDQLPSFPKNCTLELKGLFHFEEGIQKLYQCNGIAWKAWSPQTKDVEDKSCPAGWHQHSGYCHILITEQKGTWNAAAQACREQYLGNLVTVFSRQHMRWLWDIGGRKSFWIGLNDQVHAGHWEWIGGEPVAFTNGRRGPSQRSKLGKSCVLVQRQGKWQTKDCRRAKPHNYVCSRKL

As for “FRAS1-related extracellular matrix protein 1 (Homo sapiens), Q5H8C1 L1324R”, the “effect of a mutation on the interaction” value in assay [1] is “disrupting interaction strength”. On to “FRAS1-related extracellular matrix protein 2 (Homo sapiens), Q5SZK8 R2167W”, for which, in assay [2], the “effect of a mutation on the interaction” value is “decreasing interaction strength”. For “FRAS1-related extracellular matrix protein 2 (Homo sapiens), Q5SZK8 E1972K”, in assay [2], the “effect of a mutation on the interaction” value is reported as “disrupting interaction strength”. For “FRAS1-related extracellular matrix protein 1 (Homo sapiens), Q5H8C1 R649W”, in assay [1], the “effect of a mutation on the interaction” value is given as “disrupting interaction strength”.
